Test results taken from patent publication US11673916B2, “Neuroprotective peptides and methods of their use” (University of Pittsburgh—Of the Commonwealth System of …, priority 2020, dated 2023).

Biological target: T1, Kv2.1 surface clusters (Mus musculus, UniProt Q03717)
T1 construct: immunohistochemical staining of endogenous Kv2.1 channel distribution; from tissue; host or cells: cerebral cortex of C57BL/6J mice, fixed coronal brain sections
T1 sequence (Q03717 1-857): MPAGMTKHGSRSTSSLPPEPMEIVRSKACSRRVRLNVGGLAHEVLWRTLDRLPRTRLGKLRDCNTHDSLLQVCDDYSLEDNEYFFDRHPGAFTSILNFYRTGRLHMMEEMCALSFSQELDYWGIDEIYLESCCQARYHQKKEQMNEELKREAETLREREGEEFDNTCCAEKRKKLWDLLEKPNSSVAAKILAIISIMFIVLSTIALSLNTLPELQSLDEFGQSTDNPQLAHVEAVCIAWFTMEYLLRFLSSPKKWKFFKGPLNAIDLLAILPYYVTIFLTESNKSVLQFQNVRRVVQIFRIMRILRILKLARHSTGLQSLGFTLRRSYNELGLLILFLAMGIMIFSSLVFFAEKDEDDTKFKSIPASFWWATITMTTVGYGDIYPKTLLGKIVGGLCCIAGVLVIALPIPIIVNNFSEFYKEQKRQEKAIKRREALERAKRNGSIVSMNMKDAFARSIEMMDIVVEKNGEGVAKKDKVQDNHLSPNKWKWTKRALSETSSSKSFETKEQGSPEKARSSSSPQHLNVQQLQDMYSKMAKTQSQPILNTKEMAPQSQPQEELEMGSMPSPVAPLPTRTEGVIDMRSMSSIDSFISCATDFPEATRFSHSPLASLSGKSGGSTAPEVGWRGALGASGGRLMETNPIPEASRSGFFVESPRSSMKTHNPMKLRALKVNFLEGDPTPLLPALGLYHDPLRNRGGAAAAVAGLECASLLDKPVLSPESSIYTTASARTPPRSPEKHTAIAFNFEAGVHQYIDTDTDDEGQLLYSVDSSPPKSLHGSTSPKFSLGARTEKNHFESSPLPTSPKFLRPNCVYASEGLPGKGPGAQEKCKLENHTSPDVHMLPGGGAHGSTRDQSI
Assay: Immunohistochemistry of Kv2.1 clusters in mouse cerebral cortex after intraperitoneal peptide injection
Format: in vivo
Settings: 6 nmol/g intraperitoneal, sacrificed 2 hours post-injection, mean±SEM (FIG. 5D)
Description: Eight-week-old C57BL/6J male mice (28-30 g; Jackson, Bar Harbor, Me.) were administered IP injections of 6 nmol/g TAT-DP-2 (n=3) or TAT-Sc-2 peptide (n=3). Two hours post-injection, mice were anesthetized with 3% isoflurane (Henry Schein Animal Health, Dublin, Ohio) in a 3:1 […] gas mixture. Fifty mL of ice-cold 1× sterile PBS was transcardially perfused (5-10 mL/min), immediately followed by 50 mL of 4% sterile paraformaldehyde (PFA; 5-10 mL/min). Brains were removed and placed in 4% PFA at 4° C. for 24 hours, then transferred to 30% sucrose in 1× PBS at 4° C. for 48-72 hours. […]
To analyze Kv2.1 distribution in live primary cortical neurons, cells were transfected with both a tdTomato construct and a GFP-tagged Kv2.1 construct (O'Connell, et al., J Neurosci. 26: 9609-9618, 2006) and imaged on a Nikon A1+ confocal microscope (Nikon, Tokyo, Japan). […] For live images of transfected neurons, object count parameters were customized to define a Kv2.1 cluster as an area of high intensity GFP fluorescence (compared to background), measuring 0.05 μm^2 or larger (Schulien et al., J Physiol (Lond). 594: 2647-2659, 2016). Kv2.1 cluster density was calculated by normalizing the number of Kv2.1 clusters counted to the somatic area of each neuron (#Kv2.1 clusters/μm^2). […]

Row | Sequence | mean Kv2.1 cluster density in superficial cortex
1 | YGRKKRRQRRRDFSSIST [TAT-Sc-2, TAT-linked scramble control peptide] | 565.70±50.72 #Kv2.1 clusters/image field
2 | YGRKKRRQRRRSIDSFTS [TAT-DP-2, TAT-linked declustering peptide 2] | 301.10±39.60 #Kv2.1 clusters/image field
